Data reported in patent US20230065495A1, “MULTIPARTITE AND CIRCULARLY PERMUTED BETA-BARREL POLYPEPTIDES AND METHODS FOR THEIR USE” (University of Washington, priority 2020, published 2023).

Legend:
[1] = Chromophore titration with DFHBI; format: binding
Protocol: (§1) Fluorescence endpoints were measured on a Synergy Neo2™ hybrid multi-mode reader (BioTek) in flat bottom, black polystyrene, non-binding surface 96-well microplates (Corning 3650). In measuring chromophore binding affinities (FIG. 6d,e), mFAP2, mFAP2a, and mFAP2b, and mFAP10 were produced by large-scale protein purification and SEC purification^9. Proteins were aliquoted in eight technical replicates in 200 μL final volumes to 20.0 nM final concentration in ten serial dilutions (√{square root over (10)} dilution factor) of DFHBI starting from 31.6 μM DFHBI or 31.6 μM DFHBI-1T final concentrations, including an eleventh condition without chromophore. Fluorescence was excited at λex=468 nm and fluorescence emission measured at λem=530 nm. Background fluorescence endpoints of wells with identical chromophore concentrations but purified protein replaced with an identical volume of high salt Tev cleavage buffer were measured, and fluorescence endpoints subtracted from those measured with protein. Background-subtracted data were averaged and the means normalized from 0 to 1 and fit to a single binding site isotherm function using non-linear least squares fitting to obtain a fitted Kd value (Table 4), and the fit scaled to the maximum mean value (FIG. 6d,e).

[2] = Chromophore titration with DFHBI-1T; format: binding
Protocol: as §1

[3] = Absolute quantum yield (integrating sphere) and brightness; format: physicochemical
Protocol: Protein preparation. mFAP2a, mFAP2b and mFAP10 were produced by large-scale protein purification^9 and dialyzed overnight into DPBS that was adjusted to pH 7.40 using NaOH.
Chromophore preparation. DFHBI (Lucerna) and DFHBI-1T (Lucerna) were dissolved to 20.0 mM in 100% DMSO, and diluted in DPBS (pH 7.40) to measure absorbances on a Jasco V-750 spectrophotometer at peak absorbance wavelengths (417 nm for DFHBI and 422 nm for DFHBI-1T). Following background subtraction of identical buffer without chromophore, Beer's Law was used to calculate the molar chromophore concentrations of the stock solutions using previously reported extinction coefficients^5.
Preparation of protein-chromophore complexes. […]
Absolute quantum yield. […] Absolute quantum yields were measured for solutions of protein-chromophore complexes in DPBS (pH 7.40) in which ≥95% of the total chromophore was occupying the protein binding pocket (Table 4). Protein-chromophore complex samples and control samples were excited at λex=440 nm and absolute quantum yields were calculated according to the equation: […]
where fem is the emitted photon flux and fabs is the absorbed photon flux. […] Absolute quantum yield data was analyzed with U6039-05 PLQY measurement software (Table 4; FIG. 8).

B1: mFAP10: canonical, single-chain mFAP, SEQ ID NO: 534 (protein)
chain: SRAAQLLPGTWQATFTNEDGQTSQGQIHFQPRSPYTMDIVAQGTISDGRPIVGYGKATVKTPDTLDIDITYPSLGNIKAQGQITMDSPTQFKFDATTKGENDFHGRLTGTLQRQE
higher affinity for DFHBI than DFHBI-1T [1]: ~2.6 fold | Kd [2]: 45 nM | brighter fluorescence with DFHBI-1T than DFHBI [3]: ~12 fold
